Positions count from the first letter of the chain named.
T1: B7H3 on cells (B7H3 on HEK293 cells; B7H3 expressed from plasmid on HEK-293T and QT6 cells) (human, UniProt Q5ZPR3 29-534)
T1 construct: whole, on cells; also called HEK293 B7H3 proteins; human B7H3
T1 sequence (looked up): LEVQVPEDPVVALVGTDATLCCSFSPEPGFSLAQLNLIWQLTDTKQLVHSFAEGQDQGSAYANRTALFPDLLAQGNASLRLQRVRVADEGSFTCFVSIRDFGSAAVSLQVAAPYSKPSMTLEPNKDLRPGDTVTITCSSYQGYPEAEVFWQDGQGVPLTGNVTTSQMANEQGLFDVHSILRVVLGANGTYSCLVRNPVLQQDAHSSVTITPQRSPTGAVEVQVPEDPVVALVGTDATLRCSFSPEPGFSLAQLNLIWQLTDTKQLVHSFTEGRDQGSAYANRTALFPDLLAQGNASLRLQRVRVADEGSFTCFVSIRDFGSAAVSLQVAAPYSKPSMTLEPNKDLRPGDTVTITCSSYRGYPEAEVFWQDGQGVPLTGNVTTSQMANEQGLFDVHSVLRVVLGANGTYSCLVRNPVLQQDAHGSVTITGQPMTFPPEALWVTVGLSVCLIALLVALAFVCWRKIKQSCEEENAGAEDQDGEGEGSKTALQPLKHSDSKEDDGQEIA

B1: humanized 26B6 (antibody, V domains shown)
VH: EVQLVQSGAEVKKPGASVKVSCKASGYTFTEYTMHWVRQAPGQGLEWIGGINPNTGGTTYNQKFNGRVTMTRDTSISTAYMELSSLRSEDTAVYYCTRPYRDDGGFHWYFDVWGQGTLVTVSS
VL: EIVLTQSPATLSLSPGERATLSCSASSSVSYMQWYQQKPGLAPRLLIYDTSKLTSGIPDRFSGSGSGTDFTLTISRLEPEDFAVYYCQQWSSNPLTFGGGTKVEIKR
notes: also called hz26B6; h26B6
B2: humanized 6F7 with light chain variable region LV1 (antibody, V domains shown)
VH: EVQLVESGGGLVQPGGSLRLSCAASGFTFTDYYMSWVRQAPGKGLEWVAFIRNKANGYTTEYSASVKGRFTISRDDSKNSLYLQMNSLRAEDTAVYYCARDSHYRPFAYWGQGTLVTVSS
VL: DIVMTQSPLSLPVTPGEPASISCKSSQSLLNSGNQNNYLTWYLQKPGQSPQLLIYLASTRDSGVPDRFSGSGSGTDFTLKISRVEAEDVGVYYCQNDYTYPLTFGGGTKVEIKR
notes: also called hz6F7L1; h6F7H1L1
B3: humanized 6F7 with light chain variable region LV2 (antibody, V domains shown)
VH: B2 VH
VL: DIVMTQSPDSLAVSLGERATINCKSSQSLLNSGNQNNYLTWYQQKPGQPPKLLIYLASTRDSGVPDRFSGSGSGTDFTLTISSLQAEDVAVYYCQNDYTYPLTFGGGTKVEIKR
notes: also called hz6F7L2; h6F7H1L2
B4: chimeric antibody ch2B8 (antibody, V domains shown)
VH: QVQLQQSGPELVRPGVSVKISCKVSGYTFTDGAMHWVKRSHAKSLEWIGIINTNSGNTNYNQKFQGKATMTVDKSSSTAYMELARLTSEDSAIYYCARGVFYYGYGAWFAYWGQGTLVTVSA
VL: DVQITQSPSYLTASPGETIIINCRASKTISNYLAWYQEKPGKTNKLLIYSGSTLQSGIPSRFSGSGSDTDFTLTISSLEPEDFAMYYCQQHHEYPLTFGAGTKLELKR
B5: chimeric antibody ch26B6 (antibody, V domains shown)
VH: EVQLQQSGPELVKPGASVKISCKTSGYAFTEYTMHWVKQSQGKSLEWIGGINPNTGGTTYNQKFNGKATLTVDRSSSTAYMELRSLTSEDSAVYYCTRPYRDDGGFHWYFDVWGAGTAVTVSS
VL: QIVLTQSPAVMSTSPGEKVTMTCSASSSVSYMQWYQQKSGTSPKRWIYDTSKLTSGVPARFSGSGSGTSYSLTISSMEAEDAATYYCQQWSSNPLTFGAGTKLELKR
B6: humanized 2B8 (antibody, V domains shown)
VH: QVQLVQSGAEVKKPGASVKVSCKVSGYTFTDGAMHWVRQAPGQGLEWIGIINTNSGNTNYNQKFQGRVTMTRDTSISTAYMELSRLRSEDTAVYYCARGVFYYGYGAWFAYWGQGTLVTVSS
VL: DIQLTQSPSFLSASVGDRVTINCRASKTISNYLAWYQQKPGKAPKLLIYSGSTLQSGVPSRFSGSGSGTDFTLTISSLQPEDFATYYCQQHHEYPLTFGGGTKVEIKR
notes: also called hz2B8; h2B8
B7: chimeric antibody ch6F7 (antibody, V domains shown)
VH: EVKLVESGGGLVQPGGSLRLSCATSGFTFTDYYMSWVRQPPGKALEWLGFIRNKANGYTTEYSASVKGRFTISSDDSQSILYLQMNTLRAEDSATYYCARDSHYRPFAYWGQGTLVTVSA
VL: DIQMTQSPSSLTVTAGEKVTMSCKSSQSLLNSGNQNNYLTWYQQKPGQPPKLLIYLASTRDSGVPDRFTGSGSGTDFTLTISSVQAEDLAVYYCQNDYTYPLTFGAGTKLELKR
B8: anti-B7H3 antibody 23H1 (antibody, V domains shown)
VH: B7 VH with A55V, G57D, A64V, S74R, D76N, S79T, H103P
VL: B7 VL with Q3V, K18N, S28T, S32N, N36K, Y38F, D61E

What follows are binders tested against T1, B7H3 on cells (B7H3 on HEK293 cells; …) (assay: flow cytometry on HEK293 cells).
Experimental: (§1) 2×10⁵ HEK293 cells were resuspended with PBS+5% BSA and incubated for 30 min at 4° C. Different concentrations of humanized antibody (5 μg/mL to 0.002286 μg/mL, 3-fold gradient dilution) were added and incubated for 60 min at 4° C. After centrifugation and washing, a PBS+5% BSA solution containing an FITC-labeled secondary antibody (1:200, sigma, F9512) was added and incubated on ice for 30 min in the dark. Cells were washed three times before the flow cytometry analysis. EC50 was calculated using GraphPad software.

Q: B1 was tested. Which EC50 did it give?
A: Its EC50 is 0.306 µg/mL.

Q: Which EC50 does the source give for B2 here?
A: Its EC50 is 0.604 µg/mL.

Q: B3 was tested. Which EC50 did it give?
A: The EC50 was 0.41 µg/mL.

Q: B4 was tested. Which EC50 did it give?
A: Its EC50 is 0.132 µg/mL.

Q: Which EC50 does the source give for B5 here?
A: Its EC50 is 0.224 µg/mL.

Q: How did the EC50 turn out when B6 was run?
A: The EC50 was 0.0779 µg/mL.

These binders were tested against T1, B7H3 on cells (B7H3 on HEK293 cells; …) (assay: flow cytometry on HEK293 cells (text value, conflicts with Table 2)).
Experimental: as §1

Q: How did the EC50 turn out when B7 was run?
A: The EC50 was 0.224 µg/mL.

Q: With B5 as the binder, how does the EC50 read?
A: The EC50 was 0.232 µg/mL.

Each binder was assayed against T1, B7H3 on cells (B7H3 on HEK293 cells; …) (assay: flow cytometry on HEK293 cells, FITC-labelled secondary antibody; y axis without title).
Experimental: as §1, with “5×10⁵” for “2×10⁵”, “of” for “of humanized”, “(1” for “(5”, “0.01” for “0.002286”, “10-fold” for “3-fold”, “analysis.” for “analysis. EC50 was calculated using GraphPad software.”
Using the flow cytometry method, the control antibodies (huM30, Eno) and the 2B8, 26B8, 23H1 and 6F7 antibody were tested for their binding abilities to HEK293 B7H3 proteins at a final concentration of 1 μg/mL, 0.1 μg/mL and 0.01 μg/mL, respectively. Compared with the control antibodies, the 2B8, […], 23H1 and 6F7 antibody each have the same or better binding ability to the HEK293 B7H3 proteins.

Q: Does B8 bind?
A: Result: binds

Source: patent publication US20250011430A1 (GUANGZHOU BIO GENE TECHNOLOGY, published 2025)
